Among the data in patent publication US20170267762A1 (APOLLOMICS, published 2017) are IC50 and EC50 values, retold here.

The chains are these.
B1: chimeric 13F1-hIgG4 (antibody, V domains shown)
VH: DVQLQESGPGLVKPSQSLSLTCTVTGYSITSDYAWNWIRQFPGNQLEWMAYISYSGYTSYNPSLKSRISITRDTSKNQFFLQLNSVTTEDTATYYCARSLDYDYGTMDYWGQGTSVTVSS
VL: QIVLSQSPAILSASPGEKVTMTCRANSSVSSMHWYQQKPGSSPEPWIYAISNLAFGVPTRFSGSGSGTSYSLTISRVEAEDAATYFCQQWSSRPPTFGGGTKLEIKR
notes: Full chimeric chains; also called 13F1-chimeric
B2: chimeric 7A4-hIgG4 (antibody)
heavy: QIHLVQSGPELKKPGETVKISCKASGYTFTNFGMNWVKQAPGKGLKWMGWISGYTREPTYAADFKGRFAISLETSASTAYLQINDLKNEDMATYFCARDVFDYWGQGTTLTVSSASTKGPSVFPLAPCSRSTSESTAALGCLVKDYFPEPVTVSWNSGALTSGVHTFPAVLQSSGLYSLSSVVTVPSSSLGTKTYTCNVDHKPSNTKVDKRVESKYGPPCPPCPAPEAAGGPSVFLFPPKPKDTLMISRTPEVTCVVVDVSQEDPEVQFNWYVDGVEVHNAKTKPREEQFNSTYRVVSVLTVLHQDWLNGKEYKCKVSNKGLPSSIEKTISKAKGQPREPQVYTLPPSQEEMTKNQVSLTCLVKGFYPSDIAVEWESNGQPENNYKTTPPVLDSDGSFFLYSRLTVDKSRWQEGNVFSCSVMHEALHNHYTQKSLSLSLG
light: DIVLTQSPASLAVSLGQRATISCRASESVDNYGYSFMNWFQQKPGQPPKLLIYRASNLESGIPARFSGSGSRTNFTLTINPVEADDVATYFCQQSNADPTFGGGTNLEIKRTVAAPSVFIFPPSDEQLKSGTASVVCLLNNFYPREAKVQWKVDNALQSGNSQESVTEQDSKDSTYSLSSTLTLSKADYEKHKVYACEVTHQGLSSPVTKSFNRGEC
notes: Full chimeric chains
B3: chimeric 7A4-hIgG1 (antibody)
heavy: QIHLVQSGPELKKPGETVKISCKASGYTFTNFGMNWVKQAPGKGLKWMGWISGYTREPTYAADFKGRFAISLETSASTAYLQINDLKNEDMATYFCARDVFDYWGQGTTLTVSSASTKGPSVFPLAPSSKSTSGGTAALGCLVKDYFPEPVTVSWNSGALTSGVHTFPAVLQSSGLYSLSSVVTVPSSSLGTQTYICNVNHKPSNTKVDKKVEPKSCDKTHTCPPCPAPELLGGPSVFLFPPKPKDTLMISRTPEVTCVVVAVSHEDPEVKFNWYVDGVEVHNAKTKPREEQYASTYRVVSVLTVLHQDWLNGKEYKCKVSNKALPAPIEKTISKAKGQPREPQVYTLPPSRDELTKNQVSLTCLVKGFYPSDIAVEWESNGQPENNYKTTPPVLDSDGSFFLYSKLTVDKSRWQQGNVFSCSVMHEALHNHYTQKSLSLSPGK
light: B2 light
notes: Full chimeric chains; also called 7A4-chimeric-IgG1
B4: chimeric 4C10-hIgG4 (antibody, V domains shown)
VH: QVQLKQSGPGLVQPSQNLSVTCTVSGFSLTTYGVHWVRQSPGKGLEWLGVIWSGGSTDYNAAFISRLTISKDNARSQVFFKMNSLQVNDTAMYYCAREKSVYGNYVGAMDYWGQGTSVTVSS
VL: SIVMTQTPKFLLVSAGDRVTITCKASQSVSDDVAWYQQKPGQSPKLLIYYAFNRYTGVPDRFTGSGYGTDFTFTISTVQSEDLAVYFCQQDYRSPWTFGGGTKLEIKR
notes: Mouse variable regions with human IgG4 constant region
B5: chimeric 15H5-hIgG4 (antibody, V domains shown)
VH: EVKLVESGGGLVKPGGSLKLSCAASGFAFRSYDMSWVRQTPEKILEWVATISGGGSYTYYQDSVKGRFTISRDNARNTLYLQMSSLRSEDTALYYCASPYGPYFDYWGQGTTLTVSS
VL: DIQMNQSPSSLSASLGDTITITCHASQSINVWLSWYQQKPGNIPKLLIYRASNLHTGVPSRFSGSGSGTGFTLTISSLQPDDIATYYCQQGQSYPWTFGGGTKLEIKR
notes: as for B4
B6: chimeric 14A6-hIgG4 (antibody, V domains shown)
VH: B1 VH with K76R
VL: B1 VL with T59A, S91N
notes: as for B4
B7: chimeric 22A5-hIgG4 (antibody, V domains shown)
VH: EVKLVESGGGLVKPGGSLKLSCSASGFSFSYYDMSWVRQTPEKGLEWVATISGGGRNTYFIDSVKGRFTISRDNVKNNLYLLMSSLRSEDTALYYCASPYEGAVDFWGQGTSVTVSS
VL: DIVMTQSHKVMSTSVGDRVSITCKASQDVDNAVAWYQQNPGQSPKLLIKWASTRHHGVPDRFTGSGSGTDFTLTISTVQSEDLADFFCQQYSTFPYTFGGGTKLEIKR
notes: as for B4
B8: chimeric 10D1-hIgG4 (antibody, V domains shown)
VH: EVKLVESGGGLVKPGGSLKLSCAASGFTFSSYGMSWLRQTPEKRLEWVATMSGGGRDIYYPDSMKGRFTISRDNAKNNLYLQMSSLRSEDTALYYCARQYYDDWFAYWGQGTLVTVSA
VL: DIVLTQTPATLSVTPGDSVSLSCRASQSISNNLHWYQQKSHESPRLLIKYASQSISGIPSRFSGSGSGTDFTLNINSVETEDFGMYFCQQSNSWPLTFGAGTKLELKR
notes: as for B4

Positions count from the first letter of the chain named.

T3 sequence (chain, as listed by the source limits assumed): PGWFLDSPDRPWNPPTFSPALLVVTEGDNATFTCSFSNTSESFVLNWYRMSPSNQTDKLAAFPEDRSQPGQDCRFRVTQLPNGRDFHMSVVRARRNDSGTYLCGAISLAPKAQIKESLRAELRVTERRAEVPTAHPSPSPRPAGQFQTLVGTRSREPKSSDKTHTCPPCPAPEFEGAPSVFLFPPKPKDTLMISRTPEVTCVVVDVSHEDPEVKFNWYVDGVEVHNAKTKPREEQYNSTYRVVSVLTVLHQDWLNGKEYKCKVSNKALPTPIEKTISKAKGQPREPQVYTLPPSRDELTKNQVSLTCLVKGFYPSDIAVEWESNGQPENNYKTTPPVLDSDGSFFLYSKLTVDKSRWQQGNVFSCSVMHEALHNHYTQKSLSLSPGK

The target in the first test is T1, human PD-1 extracellular domain fused with mouse Fc (PD-1-mFc) (human, UniProt Q15116 25-170).
T1 construct: extracellular domain; not used because of the label; also called hPD-1-mFc; human PD-1-mouse Fc fusion protein
T1 sequence (Q15116 25-170): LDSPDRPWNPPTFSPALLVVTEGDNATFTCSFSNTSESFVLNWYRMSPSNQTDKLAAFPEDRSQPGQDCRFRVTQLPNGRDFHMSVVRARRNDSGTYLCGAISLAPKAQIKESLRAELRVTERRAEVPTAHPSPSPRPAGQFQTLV
In words: ELISA ligand blockage: biotinylated PD-L1-mFc binding to plate-bound PD-1, OD450 (methods similar to Example 2: PD-1-mFc coated). As to the method: (§1) PD-1-mFc antigen (CrownBio) was suspended in PBS (Hyclone,Cat No:SH30256.01B) buffer (2 ug/ml, 100 ul/ well) and coated on the 96 well plate (costar, Cat No.:9018) 4° C. overnight. Plates were washed 3 times using washing buffer: PBS+0.05% Tween 20(Sigma, Cat No.:P1379). 200 ul of blocking buffer (PBS+1%BSA(Roche, Cat No.:738328)), was added to each well, incubated at 37° C. for 1 hour, and washed 3 times. Various concentrations (suitable dilutions of hybridoma supernatant in PBS) of the anti-PD-1 Abs were added to the wells (100 μl/well) and incubated at 37° C. for 1 hour. […] Secondary antibody (Avidin HRP eBioscience cat No.:E07418-1632, 1:500, 100 ul/well) was added, incubated at 37 ° C. for 0.5 hour, and washed 3 times. TMB (Sigma, Cat No.: T0440, 100 ul/well) was added, and incubated for 3 min at RT. To stop the reaction, 2N H2SO4 (100 ul/well), was added. The colorimetric signals were developed and read at 450 nm using a Auto Plate SpectraMax Plus (Supplier: Molecular Devices; Model: MNR0643; Software: SoftMax Pro v5.4).
On to B1, for which the IC50 (commonly the midpoint of a concentration-inhibition curve) was 0.878 µg/mL.

In the case of B2, the half-inhibitory concentration (IC50) was determined as 0.845 µg/mL.

Turning to B3, the half-maximal inhibitory concentration (IC50) was found to be 0.356 µg/mL.

For the next test, the target named is T2, human PD-1 on cells (293T cells transfected with human PD-1) (human, UniProt Q15116 25-288).
T2 construct: whole, on cells; Also used as the target for the functional rows, where PD-1 stands on human T cells
T2 sequence (Q15116 25-288): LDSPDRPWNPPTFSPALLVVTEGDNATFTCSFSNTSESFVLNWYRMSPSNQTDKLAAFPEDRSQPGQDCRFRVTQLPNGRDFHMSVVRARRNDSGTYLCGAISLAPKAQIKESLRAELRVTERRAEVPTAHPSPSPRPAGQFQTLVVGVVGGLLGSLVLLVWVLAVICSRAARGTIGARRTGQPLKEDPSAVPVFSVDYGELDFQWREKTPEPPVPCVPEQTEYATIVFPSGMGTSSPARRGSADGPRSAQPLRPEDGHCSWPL
In words: FACS binding to 293T cells expressing human PD-1, MFI. As to the method:
(§2) The cells were incubated with the indicated antibody (20 ug/ml with the dilution of ⅕) at 4° C. for 1 h. Cells were washed three times with FACS buffer. A secondary antibody (PE Goat anti-mouse: 1:200; PE mouse anti-human: 1:10) was added to the cells at 100 ul/well, and incubated at 4° C. for 40min. Cells were washed three times with FACS buffer and analyzed by FACS Array.
On the technique in general: In flow cytometry, cells or beads pass a laser one at a time.
In the case of B1, the midpoint of the response, the EC50, lay at 0.0815 µg/mL.

For B2, a half-maximal response (EC50) required 0.137 µg/mL.

For the molecule B3, the EC50 – broadly, the concentration giving half of the maximal effect – amounted to 0.0337 µg/mL.

A further test deals with T1, human PD-1 extracellular domain fused …. As to the kind of experiment: blockage ELISA, coated PD-1-mFc, competitor PDL-1-mFc-biotin. As to the method: as §1
(§3) Freestyle 293 cells (200 mL at 10⁶/mL) were transfected with 100 μg of each of the chimeric heavy and light chain expression plasmids and cultured for 6 days. The chimeric antibody in the supernatant was then purified with Protein-G column (GE healthcare).
Background: An ELISA detects its analyte on a solid surface through an enzyme-linked reagent.
In turn, B4 registered an IC50 of 0.978 µg/mL.

Molecule B5 came in with an IC50 of 1.37 µg/mL.

In the case of B1, the IC50 was 0.856 µg/mL.

Turning to B6, the IC50 was 0.823 µg/mL.

In turn, B2 displayed an IC50 of 0.871 µg/mL.

B7 came in with a 50% inhibitory concentration (IC50) of 1.01 µg/mL.

Take B8: the half-inhibitory concentration (IC50) stood at 1.03 µg/mL.

A further test addresses T2, human PD-1 on cells (293T cells …). As to the kind of experiment: FACS on hPD-1-293T cells. As to the method:
as §2, §3
B4: a half-maximal response (EC50) required 0.221 µg/mL.

Regarding B5, the response was half-maximal at 0.244 µg/mL (EC50).

B1 gave an EC50 of 0.113 µg/mL.

On to B6, for which the midpoint of the response, the EC50, lay at 0.103 µg/mL.

In the case of B2, the concentration giving a half-maximal response (EC50) was determined as 0.0916 µg/mL.

With B7, the EC50 amounted to 0.145 µg/mL.

In turn, B8 came in with an EC50 of 0.219 µg/mL.

A further test concerns the target T3, human PD-1 extracellular domain fused with human Fc tag (hPD-1-hFc) (human).
T3 construct: also called human PD-1-hFc
In words: ELISA on coated PD1-hFc. As to the method: (§4) ELISA binding analysis was conducted based on human PD-1-hFc Protein. 96-well plates (Costar, Cat No:9018) were coated with 100 μL of 2 μg/ml PD1-hFc (CrownBio) in coating buffer (PBS, Hyclone, Cat No:SH30256.01B) overnight at 4° C. The wells were aspirated and non-specific binding sites were blocked by adding 200 μL of blocking buffer with 1% (w/v) of bovine serum albumin (BSA, Roche, Cat No: 738328) and incubating for 1 hour at 37° C. After the plates are washed three times with wash buffer (PBS with 0.05%(v/v) Tween20 (Sigma, Cat No:P1379), 100 μL/well of a suitable dilutions of hybridoma supernatant in blocking buffer were added and incubated at room temperature for 1 hour. The plates were washed and incubated with 100 μL/well of Goat anti-Mouse IgG (H+L) (Thermo, Cat No: 31432) in blocking buffer for 60 min. After the plates were washed, 100 μL/well of substrate solution (TMB(eBioscience, Cat No:00-4201-56) was added and the plates were incubated for 2min at room temperature. 100 μL/well of stop solution (2N H2SO4) was added to stop the reaction. The colorimetric signals were developed and read at 450 nm using a Auto Plate SpectraMax Plus (Supplier: Molecular Devices; Model: MNR0643; Software: SoftMax Pro v5.4).
as §3
B4 displayed an EC50 of 0.0946 µg/mL.

For B5, the midpoint of the response, the EC50, lay at 0.0818 µg/mL.

Molecule B1 showed an EC50 of 0.0587 µg/mL.

On to B6, for which a half-maximal response (EC50) required 0.0646 µg/mL.

B2 registered an EC50 of 0.062 µg/mL.

Take B7: the EC50 stood at 0.0413 µg/mL.

With B8, the midpoint of the response, the EC50, lay at 0.0588 µg/mL.

The next test has as its target T3, human PD-1 extracellular domain fused …. As to the kind of experiment: ELISA binding to plate-bound PD-1, OD450 (methods similar to Example 2: plate coated with PD1-hFc). As to the method:
as §4
For the molecule B1, the EC50 is 0.0456 µg/mL.

In turn, B2 returned a half-maximal effective concentration (EC50) of 0.0474 µg/mL.

As to B3, the response was half-maximal at 0.0128 µg/mL (EC50).

The target of a further test is T2, human PD-1 on cells (293T cells …). In words: FACS blockage on hPD-1-293T cells, competitor biotin PD-L1. As to the method:
Various concentrations of the testing hybridoma antibodies were added to the cell suspension and incubated at 4° C. for 60 minutes in 96 well plates. […] Plates were washed 3 times, and mouse anti-biotin PE antibody (Biolgend, cat# 409004) was added. Flow cytometric analyses were performed using a FACS Array.
as §3
In the case of B4, the 50% inhibitory concentration (IC50) is 0.129 µg/mL.

As for B5, the IC50 came out at 0.101 µg/mL.

The molecule B1 had an IC50 of 0.0521 µg/mL.

Turning to B6, the IC50 stood at 0.0614 µg/mL.

As for B2, the IC50 worked out at 0.0706 µg/mL.

B7: the IC50 stood at 0.0843 µg/mL.

Molecule B8 yielded an IC50 of 0.0403 µg/mL.
